Data reported in the supplement of paper PMC7125110.
± gives the standard error. Fewer inactive variants are shown than the library holds.

B1: glmS ribozyme (parent)
chain: AUAAAAGCGCCAGAACUACAGAAAUGUAGUUGACGAGGAGGAGGUUUAUCGAAUUUUCGGCGGAUGCCUCCAAA

Key:
Conditions in all cases: with glucosamine-6-phosphate
glucosamine-6-phosphate [1] = variants of: B1; test: self-cleavage kobs at 40 uM GlcN6P; higher = faster cleavage; RNA array
Method in brief: (§1)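 A hybridised Cy3 probe tracked barcoded ribozyme variants, transcribed in situ by E. coli RNA polymerase on sequenced MiSeq chips, at 37 °C. The variants received 40 μM to 10 mM glucosamine-6-phosphate in HEPES/KCl/Mg(OAc)2 buffer. kobs came from decay fits and kcat and KM from weighted Michaelis–Menten fits.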

glucosamine-6-phosphate [2] = variants of: B1; test: self-cleavage kobs at 160 uM GlcN6P; higher = faster cleavage; RNA array
Method in brief: as §1

glucosamine-6-phosphate [3] = variants of: B1; test: self-cleavage kobs at 640 uM GlcN6P; higher = faster cleavage; RNA array
Method in brief: as §1

glucosamine-6-phosphate [4] = variants of: B1; test: self-cleavage kobs at 10000 uM GlcN6P; higher = faster cleavage; RNA array
Method in brief: as §1

glucosamine-6-phosphate [5] = variants of: B1; test: self-cleavage kobs at 2500 uM GlcN6P; higher = faster cleavage; RNA array
Method in brief: as §1

Variant | self-cleavage kobs at 40 uM GlcN6P (glucosamine-6-phosphate [1]) [s⁻¹] | self-cleavage kobs at 160 uM GlcN6P (glucosamine-6-phosphate [2]) [s⁻¹] | self-cleavage kobs at 640 uM GlcN6P (glucosamine-6-phosphate [3]) [s⁻¹] | self-cleavage kobs at 10000 uM GlcN6P (glucosamine-6-phosphate [4]) [s⁻¹] | self-cleavage kobs at 2500 uM GlcN6P (glucosamine-6-phosphate [5]) [s⁻¹]
AUAAAAGCGCCAGAACUACAGAAAUGUAGUUGACGAGGAGAAGGUUUAUCGAAUUUCCGGCGGAUGCCUCCAAA | < 1e-05 | < 1e-05 | < 1e-05 | – | –
AUAAAAGCUCCAGAACUACAGAAAUGUAGUUGACGAGGAGGAGGGUUAUGGAAUUUUCGGCGGAUGCCUCCAAA | < 1e-05 | < 1e-05 | < 1e-05 | < 1e-05 | –
AUAAAAGCGCCAGAACUACAGAAAUGUAGUUGUCGAGGAGGAGGUUUAUCGAUUUUUCGGCGGUUGCCUCCAAA | < 1e-05 | – | – | < 1e-05 | –
AUAAAAGCGCCAGAACUACAGAAAUGUAGUUGACGAGGAGGAGGUUUAUCGAAUUCUCGGAGGAUGCCUCCAAA | < 1e-05 | < 1e-05 | < 1e-05 | – | –
AUAAAAGCGCCAGAGCUACAGAAAUGUAGUUGACGAGGAGGAGGUUUAUCGAAUUUUCGGCGGAUGCCUCGAAA | 0.000107 ± 1.2e-05 | 0.000256 ± 4.1e-05 | 0.00066 ± 8.8e-05 | – | 0.00214 ± 0.00045
AUAAAAGCGCCAGAACUACAGAAAUGUAUUUGACGAGGAGGGGGUUUAUCGAAUUCUCGGCGAAUGCCUCCAAA | < 1e-05 | – | – | < 1e-05 | –
AUAAAAGCGCCAGAACUACAGAAAUGUAGUUGACGAGGAGGAGGUUGAUCGAAUUUUCGGCGGAUGCCUUCAAA | 0.000323 ± 3.2e-05 | 0.000641 ± 8.8e-05 | 0.00192 ± 0.00055 | – | 0.000583 ± 0.00011
AUAAAAGCGACAUAACUACAGAAAUGUAGUUGACGAUGAGGAGGUUUAUCGAAUUUUCGACGGAAGCCUCCAAA | < 1e-05 | – | < 1e-05 | < 1e-05 | –
AUAAAACCGCCAGAACUACAGAAAUGUAGUUGACUAGGAGGAGGUUUAUCGAAGUUUCGGCGGAUGCCUCCAAA | < 1e-05 | – | – | < 1e-05 | < 1e-05
AUAAAAGCGCCAGAAUUACAGAAAUGUAGUUGACGAGGCGGAGGUUUAUCGAAUUUUCGGCGGAUGCCUCCAAA | 0.000107 ± 1.4e-05 | – | – | 0.00545 ± 0.0006 | 0.00222 ± 0.00082
AUAAAAGCGCCAGAACUACAGAAAUGUAGUUGACGAGGAGGAGGUUUAUCGAUUUUUCGGCGGAUAUCUCCAAA | 7.59e-05 ± 1.6e-05 | – | – | 0.00355 ± 0.00067 | –
AUAAAAGCGCCAGAACUACAGAAAUGUAGUUGACGAGGAGGAGGUAUAUCCAAUUUUCGGCGGAUGCCUCCAAA | < 1e-05 | – | < 1e-05 | < 1e-05 | < 1e-05
AUAAAAGCGCCAGAACUACAGAAAUGUAGUUGACGAGGAGGAGUUUUAUUGAAUUUUCGGCGGAUGGCUCCAAA | < 1e-05 | – | – | – | –
AUAAAAGCGCCAGAACUACAGAAAUGUAGUUAUCGAGGAGGAGGUUUAUCGAAUUUUCGGCGGAUGCGUCGAAA | 0.000162 ± 3.9e-05 | – | 0.000432 ± 0.0001 | 0.000152 ± 3.2e-05 | 9.26e-05 ± 3.4e-05
AUAAAAGCGCCAGGACUACAGAAAUGUAGUUGACGAGGGGAAGGUUUAUCGAAUGUUCGGCGGAUGCCCCCAUA | < 1e-05 | – | – | – | –
AUAAAAGCGCGAGAUCUACAGAAAUGUAGUUGAGGAGGUGGAGGUUUGUCGAAUUUUCGGCGGAUGCCUCCAAA | < 1e-05 | – | < 1e-05 | – | < 1e-05
AUAAAAGCGCCACAACUACAGAAAUGUAGUUGACGAGGAUGAGGUUUAUCGAUUUUUCUGCGGAUGCCUCCAAA | < 1e-05 | – | – | < 1e-05 | –
AUAAAAGCACCAGAACUACAGAAAUGUAGUUGACGAGGCGGAGGUUUAUCGAAUUUUCGGCGGAUGCCUCCAAA | < 1e-05 | < 1e-05 | – | – | < 1e-05
AUAAAAGCGCCAGAAAUACAGAAAUGUAGUUGACGACGAGGAGGUUUUCCGGAUUUUCGGCCGAUGCCUCCAAA | < 1e-05 | – | – | < 1e-05 | –
AUAAAAGCGCCAGAACUACAGAAAUGUAGUUGACGAGGAGUAGGAUUAUCGAAUUUUCGGCGGAUGCCUCCAAA | 8.05e-05 ± 2.1e-05 | – | – | 0.000309 ± 5.5e-05 | –
AUAAAAGCGCCAGAACUACAGAAAUGUAGUUGACUAGGAGGAGGUGUAUCGAAUUUUCGGCGGAUGCCUCCAAA | < 1e-05 | < 1e-05 | < 1e-05 | < 1e-05 | < 1e-05
AUAAAAUCGCCAGAACUACAGAAAUGUAGUUGACCAGGAGGAGGUUUAUCGAAUUUUCGGCGGAUGCCUCCAAA | < 1e-05 | < 1e-05 | < 1e-05 | < 1e-05 | < 1e-05
AUAAAAGCGCCAAAACUACAGAAAUGUAGUUGACGAGGAGGAGGUUUAUCGAAUUUUCGGCGUAUGCCUCCAAA | < 1e-05 | < 1e-05 | < 1e-05 | < 1e-05 | < 1e-05
AUAAAAGCGCCAGUACUACAGAAAUGUAGUUGACGAGGAGGAGGUUUAUCGAUUUUUCGGCGGAUGCCUCUAAA | 9.83e-05 ± 2.7e-05 | 0.00021 ± 4.5e-05 | 0.000509 ± 8.6e-05 | 0.00546 ± 0.0013 | 0.00145 ± 0.00032
